Reference: PMC10170517

Tests used:
Experiment in all cases: potentiometry
Conditions in all cases: 298 K; 0.1 M NaClO4; metal-free peptide, random coil
Glu7 (position 7, …) [1] = molecular target: Glu7 (position 7, …)
Glu7 (position 7, …) [2] = molecular target: Glu7 (position 7, …); remark: listed apart in the source
Glu7 (position 7, …) [3] = molecular target: Glu7 (position 7, …); remark: listed apart in the source
Glu7 (position 7, …) [4] = molecular target: Glu7 (position 7, …); remark: listed apart in the source

Protein | pKa (Glu7 (position 7, …) [1]) | further results
DKPAKAEDHDHHQGHAH [GroEL1 C-terminal tail peptide L6 (H13Q mutant of L2) (Mycobacterium tuberculosis; H13Q)] | 4.96 | –
DKPAKAEDHDQHHGHAH [GroEL1 C-terminal tail peptide L4 (H11Q mutant of L2) (Mycobacterium tuberculosis; H11Q)] | – | pKa (Glu7 (position 7, …) [2]): 4.71
DKPAKAEDHDHHHGQAH [GroEL1 C-terminal tail peptide L7 (H15Q mutant of L2) (Mycobacterium tuberculosis; H15Q)] | 4.45 | –
DKPAKAEDHDHHHGHAQ [GroEL1 C-terminal tail peptide L8 (H17Q mutant of L2) (Mycobacterium tuberculosis; H17Q)] | 4.44 | –
DKPAKAEDHDHQHGHAH [GroEL1 C-terminal tail peptide L5 (H12Q mutant of L2) (Mycobacterium tuberculosis; H12Q)] | – | pKa (Glu7 (position 7, …) [3]): 4.36
DKPAKAEDQDHHHGHAH [GroEL1 C-terminal tail peptide L3 (H9Q mutant of L2) (Mycobacterium tuberculosis; H9Q)] | – | pKa (Glu7 (position 7, …) [4]): 4.74
